Assay results from patent publication US20260001926A1.

Biological target: fibroblast growth factor receptor (FGFR)
Test: cell-based or functional assay

EC50 (luciferase reporter in HEK293T cells transfected with plasmid FJ773212 / pGL4.33): 0.2 ng/ml
Substance: Bovine wild-type FGF2 (SEQ ID NO: 1) (from UniProt P03969 11-155) (ligand)
